Test: protease stability score; higher = more stable; yeast display proteolysis, trypsin and chymotrypsin;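 further: relative to predicted unfolded state with 0 unfolded-like and 1 meaning tenfold more protease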

Sequence	protease stability score
DEEEKEMKEIMHMLDHWLRTGDEETLNHYLDPNVRLIIFIDGRNLTSIGREESRELWRYVVEEWRIHDMHVTEVRSQGDKAESNTRLKGHVNGVERTLIQHIEVDVVDGRIKRIIIRVH	2.1
DEEEKEMRELFHHIIRLIDTGDFDTLKQLADPNTQLHIGDKHSHGREEVVRMNRHWRYHDSKIRDSHVVNGVIHVDAESNLKFDGVRTVTHVRLILYVVDGRLKSLEIRIE	0.44
DEEEKESEEAFRIHKEVLETGDEHLIERMLDPNTRIIIGDKNIHGRESALETMIKLGVKHVHIRRWNDFNGRAENDVQMRFNGRTHEVHLFALKFNGRWLMHEIEFR	1.25
DEEEKESRLALEEFLTMMKTGDEDRFTELADPHARSHYNGREHHGREVFLDWFRRVKGLKVDLQHVKTFNGRIIIHVRFHYDGVTYYVEIFVEKFDGRWYLTRVHHI	0.421
DEEEKEVHKFMDLLVRALETGDEDEFLSLVDPNARVEIGDKLLHGRESEHWLTEHIKKVAGVERFTHHIHLKDWTIFNGRVRVDGILHLDYGNFHVERRSDFIIYKVDGRWIMRSERVH	0.185
DEEEKFSREVMELHIELWETGDEDTLTRLADPHAKFVLEWNGRNHTNHGMDVLIHMLHRLLKELGIKHTELRRKDVIGDKNHIHRRVIVNGVPTDLDLELVIIDGKLREYRIHIRIR	1.56
DEEEKHARKVFRELEESLRTGDEHSMRRLLDPHTKIIINGQEHVGMEHADKFVHELRLKDSKIRHLEMHVIDGQAHLKMDVDVEGNFNGRDTRDRVTEIWIVDKINGRWLVSEVRFVKR	1.13
DEEEKHDTFMTEIFKEIYQTGDEDALATMADPDTRLIIRIGDYTEENHGWKFFIEKLMRLIRKVKNLRYIETRDHVFDGQSHIHGILIINGRKREVEIIIYIFDGRIKSIEIRIV	1.79
DEEEKHHHELFKEWSRSLITGDFTTMERMIDPNARFEINGVEFHGMDTLRKFTEHLGWEIEHVHDHRIEVYDGVDHVDTKIRGRIDGRRTETRARIILFIYDGRIKSIHEETK	0.631
DEEEKHIRKMAEDLKRAFATGDWELLLEMFDPDVRINIIVNGRIIEEHGMENHVRKHVELGITVRLKDEHVESQGNWAHHEGRLEVNVNGKEKSFDVHINLLIVNGRLKESHLKIE	2.07
DEEEKHLKKLKDMEWKLFETGNEDEIAKLADPNTRTEIDFNGVRIILHGRHVFAKYLTRWWRSLGIDHIRLEEMDIQGDYVTIRGKEDYNGKEKRVTIIIVIVDGRLKEIHVDVR	0.967
DEEEKHLRDMMEIVIKLFMTGDWDAFHEMADPDVKFQVDVGDKHIHRHGREEVVEELIRLLEHWRVRNIRIHDIKLIGDKLVVEGRWETSYGDKSHDEDVELIVIVVDGKIKKVRIIIR	2.72
DEEEKHSEDIADLMLRWWLTGDFELLAKYADPRVRLDINGREFHGREEYEEVMKDLIRRFKNVKIEIRDYEIQGEKVHVDTRLHINGKTHTVHLTFVVIDGVIKSESIRVR	1.27
DEEEKHVRKMVEIESHSHQTGDFDSIRELADPHMRIDINGVELHGWKEFERFLREIRVHHIKIKSVRDINGVAVVDTIVHGHIDGRTDTFDAHVVILKINGQWRIKSIKIE	0.918
DEEEKHWTTLIEIHFKDLLTGDEDSNLHLADPDYRLRMHFDGRELIFIGREEIHKFWHETVHKFKNMRIEINDSDIQGDKFDVDIAIRIDGVEIRYRLIIILFNGRTHRQEVHNI	1.3
DEEEKIAEEMFRRWVELRETGNEDDRRRLADPHTRMVINGVEYHGRDQFTKFLEHVRREWRYEDNKERDVKFQGDKIEINGREVSHFDGKTVTTDVRIEIVVVNGRLKRFNIHVH	1.38
DEEEKIARELSRLLAEIIETGDEDILLRMVDPHARFIINGKTIIGRETMWELWRRHVEKLGVSRIISRLRRIHVIDGRVHVHIEETFNGRTQEVRVDYMKIDGVWLIHEISIE	1.35
DEEEKIIEHVLRLLAEALSTGDEDTLDKLVDPNARVMIDGVDIHGMESMTEWLKHLRIERVHVELRDYREFNGKIHVDGVLHVDRRIGDKREHVSSKTTFIFTKVDGRWKVESIKIK	2.42
DEEEKILEEFLEIWIEAVATGDEEVLEHLMDPNTRVHILVGDKTLDVHGMEFFKRHIKILGADHIEWRIRHKEVINGRIHTRGELILRQGDKERRIDVEIILVVVNGRLKNSEVRER	1.43
DEEEKILHDALEELKREFETGDEELWQRLADPHTRVEVGDKEYHGREEFVKMMSDFVRHLRWEELRIRSVHAQGEKVITHIELEMNIDGRREIHNVTIIMRKINGRWHIEFMHKR	0.926
DEEEKILLHLLNVILHLLKTGDEEMMTELMDPNMKIDNENHKSHGWEALKFVRDQIRIHSINIREQRVQGEFAILRVDVDVEWNGRRIRTEIELHFVFVNGRVKEVHIQVK	1.02
DEEEKIMYHIFEVLIKLFLTGDFDTFTKMLDPNVYWNINGQENHGRDKVREALKLWIERFKNRTFDIKITDMRVQGEKTTLHTRLHVEVDGRHLEHDTVIILIVVDGRIKTIVIHIH	2.51
DEEEKISKEATDNFIREFETGNEEDLMKNMDPNARLIQGDKHNHGRDEASRFLVELLRDLGFKHIRLTHVRIIDGRVWVHSDLHFNGVEFKQDVIFTKINGKWTLKSLTIK	1.13
DEEEKIVEDAIRVWRRVLMTGDEEASRDLMDPNYKLVVGDKEYHGREEIVTYFKILVEHIRIDDFDVRHIRVQGDKIDINSEINGTIDGRHKRLEVTIHAHKFDGRWHLTEIIIH	0.811
DEEEKKAQEFLEFVMSALETGDEETLKRLMDPRVRLRFDGRDIHGREEVLRVWIEVLKRADHVRVEIRDMEFQGDKLHIHFELILHIGDKENHIEIRQNVFKVDGQWIIKEHEIR	2.22

Sequence	protease stability score
DEEEKKFHELYKHLVKSLITGDEHELYRLADPNMRFSVGEFHYHGRENVLERLKEFIDRFRHATIRTKHMDRQGEYIHLTLKIHQGDKTHDMEIIAWKFDGRWFLHMIYIE	0.959
DEEEKKWKDMVHLWFHWHVTGDFEALYENFDPNARLEQTIDGKRIEVHGREVVKEFFHRLMEELGVDHIRIERRQIQGEKVHIRGTSIFNGKERDVHIDLVVIDGRFRSARIIFN	1.39
DEEEKLARHWMEVWHHAEHTGDFEEFNRLLDPHTRIEINFDGQRVELHGRHEYERFFRELGMEIRRIRLRDLHVVDGKWHIDGERDGEYDGKRIDSQIIIIYRVIDGRVKEIRKDDR	0.816
DEEEKLARKIVEDWVRAMTTGDEDDLRRLADPNVRHDINGVELHGMDEWLRVLLERGYEIRIQFRHIRVYDGRVEIDIDLEIRIGDKHHHHHVHLIFEKIDGRWRMKSEKTD	1.9
DEEEKLATIVMELIEETWETGDEDLFEQLADPNVRVEIGDKVYIGREIALEWFVREIRKRGAELKHTTTHNLDVQGDKVNNDMKVNGNINGRVVIFTTHLDVRKINGKWFLRSISFK	1.29
DEEEKLDREIEKTMKETIETGDEHLLSELIDPHARLVFNGKDFHGMEEATRFWYELVTRFKNLTFVPKDVKVFDGRLIMHGINLVNGVERRLTIVVEKINGRWVIRSIHIK	1
DEEEKLEEDLARFWVTLLKTGDEEVIRHLADPHVREDWDGVHIHGREHVAKYLSQIKNVTWEIKEVRIYNGRTEIDARHHVNGRDEHVRIHIEVFNGKVRRLRFEKR	1.5
DEEEKLFHDFASHFVRNFLTGNWDMIKRNADPTVQAHIGDKEIHGWDRIVDHLEERLRKIKGMRHHPRRLVFIGEKTYLDTELHFNGVHVETILIVIVVNGRLKSVEFHIE	0.695
DEEEKLIRIFDKLLSRAMKTGDEHELFKLIDPHTRMVVNGRTFIGWELFSHVVRHWRIDHIDLEDFKVQGDYAHLDGRVDQTVNGVKIETRSIIINEKFNGRWNNSSVILH	0.163
DEEEKLLEFLVEHIATILVTGDEDRWLTLADPDVKVIIDGRTFIGWEFLEELIHQIRIHRMRIRHFSFVNGRLVFIFSIDGTIGDKRDEHDTRYEMIKIDGRWRLKRVEIR	1.48
DEEEKLLEKMFKDLIRDLLTGDEESFHKLADPNMRLNQGDFQIHGWEDVQRVLRWRMHEMRIHHLHIHHLHFFDGKLHIDGESDIEFNGVRQNRRVEILIKKVDGKWELKEVIIR	2.28
DEEEKLLEQLARLILHNLLTGDWKSHMNNADPDVKVTVNGVLVHGREDMSHLYRELLERIPNIQIRVDRVDIQGDKVHARLWVEFDGKERQSELHVRIVNGRIKEETYHEK	0.937
DEEEKLMKHRWEEWVRFLKTGDFDEIHDYMDPNVRLFIGDKTFHGRDVFARLVYRMGAKHVEFDLHDEHLINGKLIFHGRVVHTQGDKFIEFEVEIIAEKVNGKWLNRHQIFR	0.456
DEEEKLRQWIFHLWIKILETGDEKLLEELADPHVLHRFDGVHAHGRERMSSWLRELIERLGVKVHELNSIHIYGDKARINFQVHVDGQRKEMTIHMLMVDGKIKSTQLDRREH	1.09
DEEEKLSQHMLKEWFEWTITGDEDTLAKMADPNVRVHIGDYHLHGRESMLKWLHDFIRDLGVERIDFHLRDRTVQGNKARLHVVENVNGKSTETEVIIDVIDGRMKLVEIRIR	0.198
DEEEKLVEEALREFLRDLMTGDEDSLLRQIDPNARHVYNGQEFHGRKWFEEMHKRMGMELKRIEIKDSDIVNGRAISHVEVHSRIGDKRLRIETEIVTLKVNGQWLVKSLSLI	1.15
DEEEKLVRYLRELMKKAWLTGDEDYIRKLMDPDTWFIYGDKHWHGMEEVTKAFEYLLHHLRIEHSIDRHVSIIGNKVHIDGEVDVTIGEKRDRRRQEIILIIVDGRIKTIEFHER	0.942
DEEEKLWHEVARLEFELIHTGNEETWNKLADPHTRTDINGKKLHGREDFAKWSLEFLRKVKGMTMELRSTHIQGNKIRLIIRLIVDGREVKLDLEIVIINGKLREVKMEVEDT	2.56
DEEEKMDELLIKIWLKVNETGDEDTFSKLLDPDAKVIVGDKVLHGREEIEELMRQLRVDRIHVRRHKAVNGQIHQDWELRGTVNGREIRTETRVHTIKVNGQWVIHRLKIE	1.49
DEEEKMHTKAVELTETILKTGDERIIKEMADPNTRVIFDGVDLHGMEHWTEFWRRLGFKHIEIRTTEVVDGRVIIIQHVRYNGKKHESHVYADKIDGRWLYTHVEIR	0.618
DEEEKRAHEIVRRFLKWFLTGDEEASRKNMDPSVIMVINIGDKRIELHGMEQVSEFWHETVRRYDHIDIKLKDIEVQGDKAVTHGHLELRVGDKRFETDVQIILIYIDGRISFMSVNIV	2.48
DEEEKRAREQYKLMFHNLQTGDEDTLKKLMDPNVRLDINGQEHHGRENVVKFWEHFIRKLGVKHMEWKDRDVEITENHVNFHGYIIIDIDGQERRLHTIIILRKVDGKWVVESLVFK	2.23
DEEEKRERKMAEIWMKSLLTGDEDTLSRLADPNVRNVLIIDGRELNLHGRELMHESLRHLRIEHIRIDEYSIVNGVFHANTTVHGVVGDKRTTVETRIHLWIFDGKFHTIIIIIS	1.03
DEEEKRIEEIARLIFKLWHTGDEEHFLRLADPHVRLNVDGRELHGRERVKHWLHELRHRVDHITDYKEKHKENQGEFFVQWGVLDVHVDGKNVRTRVRIEIVVIDGKINEVRIEVH	1.36
DEEEKRVIHIINLVEHALETGDEDLYKNLLDPDPIYNINGRILHGREFWLEFLHHMRESIEISHWHDVRSQGDKVTVHAKTTFLIRIGDKVDRVETEVRIIIVKINGRWLLHEIHHH	0.849
